Test results as given in US20220096654A1, “PYRROLOBENZODIAZEPINE-ANTIBODY CONJUGATES AND USES THEREOF” (ADC THERAPEUTICS SA, priority 2020, published 2022).

B1: YTH24.5-B4: rat IgG2b anti-CD45 antibody YTH24.5 conjugated to non-cleavable PBD drug-linker B4 (drawing 46) (conjugate)
heavy: QVNLLQSGAALVKPGASVKLSCKASSYTFTDYYIHWVKQSHGKTLEWIGYINPKSGFTNYNEKFRRKATLTVDKSTNTAYMDISRLTSEDSATYYCTRRTGVIPMDAWGQGASVTVSSAQTTAPSVYPLAPGCGDTTSSTVTLGCLVKGYFPEPVTVTWNSGALSSDVHTFPAVLQSGLYTLTSSVTSSTWPSQTVTCNVAHPASSTKVDKKVERRNGGIGHKCPTCPTCHKCPVPELLGGPSVFIFPPKPKDILLISQNAKVTCVVVDVSEEEPDVQFSWFVNNVEVHTAQTQPREEQYNSTFRVVSALPIQHQDWMSGKEFKCKVNNKALPSPIEKTISKPKGLVRKPQVYVMGPPTEQLTEQTVSLTCLTSGFLPNDIGVEWTSNGHIEKNYKNTEPVMDSDGSFFMYSKLNVERSRWDSRAPFVCSVVHEGLHNHHVEKSISRPPGK
light: DVVMTQTPVSLSVSLGGQVSISCRSSQSFVSSDGNTYLNWYLQKPGQSPQLLIYKVSNRLSGVPDRFSGSGSGTDFTLKISRVEHDDLGVYYCGQASKIPLTFGSGTKLEIKRADAAPTVSIFPPSMEQLTSGGATVVCFVNNFYPRDISVKWKIDGSEQRDGVLDSVTDQDSKDSTYSMSSTLSLTKVEYERHNLYTCEVVHKTSSSPVVKSFNRNEC
B2: YTH24.5-B7: rat IgG2b anti-CD45 antibody YTH24.5 conjugated to PBD drug-linker B7 (drawing 49) (conjugate)
heavy: B1 heavy
light: B1 light
B3: YTH24.5-B2: rat IgG2b anti-CD45 antibody YTH24.5 conjugated to PBD drug-linker B2 (drawing 44) (conjugate)
heavy: B1 heavy
light: B1 light
B4: YTH54.12-B4: rat IgG2b anti-CD45 antibody YTH54.12 conjugated to non-cleavable PBD drug-linker B4 (drawing 46) (conjugate)
heavy: EVQLVESGGGLVQPGGSMKLSCAASGFTFSDYYMAWVRQAPKKGLEWVASMSFAGSSTYYGDSVKGRFTISRDNAKTTLYLQMNSLRSEDTATYYCARMYTTDYYLYWYFDFWGPGTMVTVSSAQTTAPSVYPLAPGCGDTTSSTVTLGCLVKGYFPEPVTVTWNSGALSSDVHTFPAVLQSGLYTLTSSVTSSTWPSQTVTCNVAHPASSTKVDKKVERRNGGIGHKCPTCPTCHKCPVPELLGGPSVFIFPPKPKDILLISQNAKVTCVVVDVSEEEPDVQFSWFVNNVEVHTAQTQPREEQYNSTFRVVSALPIQHQDWMSGKEFKCKVNNKALPSPIEKTISKPKGLVRKPQVYVMGPPTEQLTEQTVSLTCLTSGFLPNDIGVEWTSNGHIEKNYKNTEPVMDSDGSFFMYSKLNVERSRWDSRAPFVCSVVHEGLHNHHVEKSISRPPGK
light: DVQMTQSPSYLAASPGESVSISCKASKSISNYLAWYQQKPGEANKILIYSGSTLQSGTPSRFSGSGSGTDFSLTIRNLEPEDFAVYYCQQYDEKPLTFGSGTKLEIKRADAAPTVSIFPPSMEQLTSGGATVVCFVNNFYPRDISVKWKIDGSEQRDGVLDSVTDQDSKDSTYSMSSTLSLTKVEYERHNLYTCEVVHKTSSSPVVKSFNRNEC
B5: YTH54.12-B7: rat IgG2b anti-CD45 antibody YTH54.12 conjugated to PBD drug-linker B7 (drawing 49) (conjugate)
heavy: B4 heavy
light: B4 light

Key:
[1] = tested on: human CD45+ cells; assay: Allogeneic stem cell transplant model in humanized NSG mice, comparison of payloads; assay type: in vivo; conditions: for mean % hCD45+ engraftment in the bone marrow: 8 weeks after allogeneic GFP+ cells, PBS 14.12%
Experimental: Adult NSG mice (Charles River Laboratories) were sublethally irradiated with 2.5 Gy in a ^137Cs irradiator. On the following day, mice were injected with 0.5×10^6 freshly thawed cryopreserved human CD34+ cells from a health donor were injected via the tail vein in 150 μL PBS using a 29 gauge MicroFine Plus insulin syringe (BD). Engraftment of human cells in the blood was assessed periodically from 6 weeks after transplantation. At 10 weeks post-transplant, humanized NSG mice were assigned into cohorts with similar median human CD45+ cell engraftment in the blood, as determined by flow cytometry. Mice were injected with PBS or 1 mg/kg YTH24.5-B1. Sixteen 16 days after treatment, mice were transplanted with 0.5×10^6 GFP+CD34+ cells from another healthy donor. Irradiated NSG […] were also transplanted with the GFP+CD34+ from the allogeneic healthy donor as a control for engraftment of the GFP+CD34+ cells. 8 weeks after transplantation of GFP+ cells, mice were culled and blood, spleen and bone marrow taken for analysis by flow cytometry.
Experimental schedule is as previously described in example 16 but with the following modifications. Humanized NSG mice at 10 weeks post-transplant were injected with PBS or 1 mg/kg YTH24.5-B1, YTH54.12-B1, Isotype-B1, YTH24.5-B4 and Isotype-3376. Isotype-B2 and YTH24.5-B2 was given at a dose of 5 mg/kg. Transplantation of 0.5×10^6 GFP+CD34+ from an allogeneic human donor and analysis at 8 weeks post-transplant of GFP+ cells was carried out as previously described.

[2] = tested on: fLuc+ OCIM1 cells; assay: Established AML model in NSG mice, treatment 10 days post-injection; assay type: in vivo; conditions: for mice alive at 60 days: cohorts of 5 mice, all tumor-bearing
Experimental: (§1) NSG mice were transplanted with 7.5×10^6 fLuc+ OCIM1 cells i.v. At 10 days post-injection of AML cells, unconjugated antibody or ADCs were injected i.v. via a tail vein at a dose of 1 mg/kg or 5 mg/kg. Mice were regularly monitored for signs of morbidity for the duration of the experiment. For imaging, mice were injected intraperitoneally with 200 μl of 15 mg/mL D-luciferin (Regis Technologies) in PBS. Mice were subsequently anesthetized with 4% isoflurane and maintained at 2% isoflurane. Ten minutes after injection of D-luciferin, mice were placed with anterior side up inside a IVIS Lumina III (PerkinElmer). A sub-saturating image was captured using the auto-exposure setting in the Living Image software (v4.5). Quantification and preparation of images was also carried out using the same software.

[3] = tested on: fLuc+ OCIM1 cells; assay: AML model in NSG mice, treatment the day after cell injection; assay type: in vivo; conditions: for tumor (bioluminescence) signal: 1 mg/kg or 5 mg/kg i.v. the day after OCIM1 injection
Experimental: as §1, with “7.5×10^6 luciferase expressing” for “7.5×10^6”, “On the following day,” for “At 10 days post-injection of AML cells,”, “rat IgG2b antibodies” for “antibody”

[4] = tested on: 293T (CD45-); assay: Cell viability assay 5 days (PrestoBlue), 293T; assay type: cell-based, human; conditions: rat IgG2b ADC, n=3
Experimental: (§2) OCIM1, Jurkat and Nalm6 cells were seeded at a final concentration of 1.275×10^4/mL and for 5 days in presence of rat IgG2b Mab or ADC or medium (in triplicate) in wells of flat bottom 96-well plates. 293T cells were seeded at 9.3×10^3 cells per 100 uL per well in flat bottom 96-well plates and allowed to adhere the plate for up to 24 hours. 293T cells were subsequently cultured with rat IgG2b Mabs or ADC or medium (in triplicate wells) as described above. PrestoBlue® Cell viability Reagent (Thermo Fisher Scientific) was added to each and incubated for up to 1.5 hours. Fluorescence intensity from each well was detected using a FLUOstar OPTIMA microplate reader (BMG Labtech). Data was plotted using Prism 8.0 and sigmoid dose-response non-linear regression was used to determine EC50 values. Data points are mean±s.d. for representative experiments.

[5] = tested on: Nalm6 (CD45-); assay: Cell viability assay 5 days (PrestoBlue), Nalm6; assay type: cell-based, human; conditions: rat IgG2b ADC, n=3
Experimental: as §2

Molecule | percentage GFP+ human CD34+ cells in the bone marrow (mean) ([1]; 1 mg/kg) | mean % hCD45+ engraftment in the bone marrow ([1]; 1 mg/kg) | period of tumor regression / low tumor signal [2] | tumor (bioluminescence) signal [3] | EC50 [4] | EC50 [5] | mice developing tumor / tumor signal ([3]; 1 mg/kg or 5 mg/kg i.v., cohorts of 5 mice) | percentage GFP+ human CD34+ cells in the bone marrow (mean) ([1]; 5 mg/kg) | mean % hCD45+ engraftment in the bone marrow ([1]; 5 mg/kg) | time within which tumor signal increased again [2] | mice alive at 60 days [2]
B1 | 57.95% | 7.34% | marginally longer period of low tumor signal than YTH24.5-B1 | Low/absent tumor signal | > 6 nM | 0.162 nM |  |  |  |  | 
B2 |  |  |  | Increasing tumor signal in three mice | > 6 nM | 0.905 nM | 3/5 |  |  |  | 
B3 |  |  | shortest period of tumor regression | Low/absent tumor signal | > 6 nM | 0.0301 nM |  | 72.14% | 1.089% | ≤ 10 days | 1/5
B4 |  |  |  |  | > 6 nM | 0.715 nM |  |  |  |  | 4/5
B5 |  |  |  |  | > 6 nM | 1.56 nM |  |  |  |  | 
